This is an account of results in the supplement of paper PMC12764529.

The nature of the data set: folding stability dG unfold (combined trypsin and chymotrypsin); higher = more stable. The method, then:
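Folding stability of de novo designed mini-proteins (<80 aa, no Cys; designed by TrROS, TrMRF, ProteinMPNN and the joint model) was measured by cDNA display proteolysis with trypsin and chymotrypsin. Each protease was used at 11 concentrations in a threefold dilution series plus a no-protease condition. K50 was inferred by Bayesian fitting of sequencing counts, and dG unfold was derived against a sequence-predicted unfolded-state K50 (Tsuboyama et al. method). Sequences shown include variable-length N-terminal GS-type padding (SAGGSAGG...) inside a display construct carrying a PA tag. Rows were kept only if the AF2 dimer inter-PAE was >15, to exclude likely homo-oligomers.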
Take “SAGGSAGGSAGGPEPIPVKISMWNPNGKPMGTFEFPIETPEDLDEFAREDGMPFRVEPESAGGSAGGSAGGS [r10_958_TrROS]”: the “folding stability dG unfold” value was less than -1 kcal/mol.
As for “SAGGSAGGSAGGPETRVVYEPLPDGTSKIVEVEAAEDYVTVPVPFPNGGEAVFTVKPGELSAGGSAGGSAGG [r7_829_TrMRF]”, the “folding stability dG unfold” value is less than -1 kcal/mol.
In the case of “SAGGSAGGSAGGPEWKEVPFTLRMPDGEPMDAKVYIDPEGPLEIENDDKWHTFPADQLKSAGGSAGGSAGGS [r10_649_TrROS]” it was less than -1 kcal/mol.
The figure for “SAGGSAGGSAGGPTVKVKKVELAPETGYAVVHFEVELEGEPKVVEGELVLPLPPPLDAPSAGGSAGGSAGGS [r10_541_TrMRF]” is less than -1 kcal/mol; for “SAGGSAGGSAGGSGLKELREEAAKGKKFIVRTTVPLKEYEFDLKDLDKFEDHDIIVEPRSAGGSAGGSAGGS [r4_157_TrMRF]” it is less than -1 kcal/mol; for “SAGGSAGGSAGGSLALVRFPGDDRLFSVPVPEDLEAELVLPTPDGRPVGVRLFRVRDPRESAGGSAGGSAGG [r7_19_TrMRF]” it is less than -1 kcal/mol.
In the case of “SAGGSAGGSAGGSLNISVSSEPLPGDLLVEKGEFPSPKTLTTLVEPGTGVVTTTTEAASSAGGSAGGSAGGS [r10_237_JUSTAS]” it was less than -1 kcal/mol; in that of “SAGGSAGGSAGGSMITTEEFTDKEEAVEKAKKTPGVEKVEVKTTPSDKYVVIIYKPPLKSAGGSAGGSAGGS [r4_1_JUSTAS]”, less than -1 kcal/mol; in that of “SAGGSAGGSAGGSMPTATLVEKEKDPVEDIITYKINTPPDKTEIIKYSPENPISESDIISAGGSAGGSAGGS [r4_481_JUSTAS]”, less than -1 kcal/mol.
“SAGGSAGGSAGGSMSWDDRPPVISTSVVKLPIEPGTVVKEGSKTYVAKPDGTVTVIDPRSAGGSAGGSAGGS [r4_394_JUSTAS]”: the “folding stability dG unfold” value is less than -1 kcal/mol.
The figure for “SAGGSAGGSAGGSMTPITTTEEVDPDFKEETIKVKNFPATTTPIPEENKRTTTIPTSLFSAGGSAGGSAGGS [r4_430_JUSTAS]” is less than -1 kcal/mol; for “SAGGSAGGSAGGSPELVPVSTEVVELETESVLELEESKVEVKERLEIVVKRLTKEGLGLESAGGSAGGSAGG [r7_485_JUSTAS]” it is less than -1 kcal/mol; for “SAGGSAGGSAGGSPPIRIRFPNNGKTIPIDGPDDLKDYLRDNGLPIDPDDLDKIDEVEWSAGGSAGGSAGGS [r4_104_TrROS]” it is less than -1 kcal/mol.
In the case of “SAGGSAGGSAGGSPVYTLERTLPDGRPVRIEISGDEATITLESPEGGERTEKVSRSEILESAGGSAGGSAGG [r7_653_JUSTAS]”, the “folding stability dG unfold” value is less than -1 kcal/mol.
The figure for “SAGGSAGGSAGGSRIHIEPDNNNYRIKNRNPGGKKEEFPFDSLEDLKDLPPGFPVEIYDSAGGSAGGSAGGS [r4_447_TrROS]” is less than -1 kcal/mol; for “SAGGSAGGSAGGSSKLVTITRGNSKTLLTLKPDEPVLLPGSDSSVSVNEGSAVNISGNKLSAGGSAGGSAGG [r7_853_JUSTAS]” it is less than -1 kcal/mol; for “SAGGSAGGSAGGSSTVLETEVTPTSEPRLLTKTLIEEFPPDNPEKPVLSVKETVLPVLLSAGGSAGGSAGGS [r4_265_JUSTAS]” it is less than -1 kcal/mol.
In the case of “SAGGSAGGSAGGSTKSINFKNPSNIRDALREAQDEGVKPVVIYFPDGKTRKIPPGDPITSAGGSAGGSAGGS [r4_260_TrROS]” it was less than -1 kcal/mol; in that of “SAGGSAGGSAGGSTVLRLERVPGTGLLVERLVTPSGSGYSVEVTVRPVGEEEREALPLGSAGGSAGGSAGGS [r10_291_JUSTAS]”, less than -1 kcal/mol; in that of “SAGGSAGGSAGGTIEGLPKEQLRDIFKDHGMPPDEFPPGQPVQFNIPNKNPIKVRVTDLSAGGSAGGSAGGS [r10_623_TrROS]”, less than -1 kcal/mol.
In the case of “SAGGSAGGSAGGWLKGMPFKITKITDVRRNPENGRRWLTIRMPNPNRPVTVPLDDLPPGLSAGGSAGGSAGG [r7_304_TrROS]” it was less than -1 kcal/mol; in that of “SAGGSAGGSAGGYRIKIKMPNGRPREIPLEPDDPEEVKEQAKELSSRGYDVTKVEVEPPSAGGSAGGSAGGS [r10_231_TrROS]”, less than -1 kcal/mol; in that of “SAGGSAGGSAGITITQNPDGPVRIMWKHPNGKPVNEGDIKPDEAEKFADKNGMRPVSIEPSAGGSAGGSAGG [r11_521_TrROS]”, less than -1 kcal/mol.
As to “SAGGSAGGSAGKIEVETNPENNYMRVKITNPGNGKKIKIPVPNGNPSDARDKAKELILEFSAGGSAGGSAGG [r17_386_TrROS]”, the “folding stability dG unfold” value is less than -1 kcal/mol.
The figure for “SAGGSAGGSAGKRIIINMPAEQAIDWAREMLPPNQPIEIFNPDHGKTREFPIPPPSPDEKSAGGSAGGSAGG [r11_163_TrROS]” is less than -1 kcal/mol; for “SAGGSAGGSAGKTISLKELMKNGNPEKALEFLKKIKEANPKPKIKLIEIDENFDAKYDINSAGGSAGGSAGG [r11_365_TrMRF]” it is less than -1 kcal/mol.
In the case of “SAGGSAGGSAGLEIPPELTVTSTFTVPPSGRRVLELLNPATNEPVVLDLETGEIHPSEALSAGGSAGGSAGG [r11_268_JUSTAS]” it was less than -1 kcal/mol; in that of “SAGGSAGGSAGLLPPGARVRLTLRAPGEPEELEFTIPASVPSVEELIERHPPVLAVEVVGSAGGSAGGSAGG [r11_157_JUSTAS]”, less than -1 kcal/mol; in that of “SAGGSAGGSAGMEEIKERYRKELEAEGRPVKEIKAEKLPPTNTIVVTLDFENKPIVIPLPSAGGSAGGSAGG [r11_279_JUSTAS]”, less than -1 kcal/mol.
Regarding “SAGGSAGGSAGMKLEELAKEAEERYREEGGDAVIDLVVEREDDKKEPFILEIGKKGLKIESAGGSAGGSAGG [r11_954_TrMRF]”, the “folding stability dG unfold” value was less than -1 kcal/mol.
On to “SAGGSAGGSAGMKTFTAPSGEKLVEVTIKTKNKEISVTVPPEEGGEAVAKKYGVSKKDIASAGGSAGGSAGG [r11_1039_JUSTAS]”, for which the “folding stability dG unfold” value was less than -1 kcal/mol.
“SAGGSAGGSAGMPVIEEKLVFYTGDGTPREKKVKVTTTPLPNGTTKKTYDIPKDEIKKLPSAGGSAGGSAGG [r11_816_JUSTAS]”: the “folding stability dG unfold” value was less than -1 kcal/mol.
The figure for “SAGGSAGGSAGMTPEEAEKEAAEKIKNELIAKGYPEAKVEVKSPVKVDEVNNTFTLDIDIKKSAGGSAGGSA [r18_517_JUSTAS]” is less than -1 kcal/mol.
The figure for “SAGGSAGGSAGMTVEVKKLSTPRYEKIITITTETTVKDPNSAKPLTTETVTTIERDEVSLSAGGSAGGSAGG [r17_124_JUSTAS]” is less than -1 kcal/mol; for “SAGGSAGGSAGMVETTSEEEAAAVIAEARAAGVPVTLVLKNPDGTTVTTPVEVVVPPDAPSAGGSAGGSAGG [r17_462_JUSTAS]” it is less than -1 kcal/mol; for “SAGGSAGGSAGMVRIKITHNNGRKNTFKIPPNITEVKEVEIKLPPELQDNITKVEIEPLDSAGGSAGGSAGG [r17_528_TrROS]” it is less than -1 kcal/mol.
The figure for “SAGGSAGGSAGNVITFPDGYYIRVTGPGPREIPIPPENAEDFVDEISKLPGIQDIEIQPRSAGGSAGGSAGG [r11_587_TrROS]” is less than -1 kcal/mol.
Consider “SAGGSAGGSAGPRVTLTPDPNSDYVLVTTYPGDGSSTTSNVPVSELEKVRKELPADFTLASAGGSAGGSAGG [r11_569_JUSTAS]”, for which the “folding stability dG unfold” value was less than -1 kcal/mol.
In the case of “SAGGSAGGSAGPWKVITHTIDIPPGADELPIRLPGNGIEAKIMSVDPGNGTITVEIYVPDSAGGSAGGSAGG [r17_198_TrROS]” it was less than -1 kcal/mol; in that of “SAGGSAGGSAGSEELAKEIEDIAQEQGFPIKDVEIERNPPNGYYSIEVRHKGNPVTIPIPSAGGSAGGSAGG [r11_279_TrROS]”, less than -1 kcal/mol; in that of “SAGGSAGGSAGSNKVSPVITLEEDPDGTVTRTVTLKINTPEGKTLTTTSTDPLSPDSALKRSAGGSAGGSAG [r3_180_JUSTAS]”, less than -1 kcal/mol.
In the case of “SAGGSAGGSAGSTEIGVYKLEGTDKVLVLAKKPNGSEVPVEFPASVTPEEAVEKAKKVVSSAGGSAGGSAGG [r17_161_TrMRF]” it was less than -1 kcal/mol; in that of “SAGGSAGGSAGSVAEALADKTITVTSPSSSTPYTATITPGADDTLRVGSPGSSGTDISVARLSAGGSAGGSA [r18_169_JUSTAS]”, less than -1 kcal/mol.
As to “SAGGSAGGSAGTLDELKNAPPGEERTVRVDFQIYEMRPDPNGKPEMEPVSPMRMEITFKPSAGGSAGGSAGG [r11_36_TrROS]”, the “folding stability dG unfold” value is less than -1 kcal/mol.
Regarding “SAGGSAGGSAGTVTEKTSIPDPNSDNSLTVTKTPNSITMTNPKTGDVIISNNSTVTKIKKSAGGSAGGSAGG [r17_544_JUSTAS]”, the “folding stability dG unfold” value is less than -1 kcal/mol.
The figure for “SAGGSAGGSAGTVVVITPKNGEKFVFEAESSELPKIKEAFPELKIKDIDPGKGFIHVEVDSAGGSAGGSAGG [r17_22_TrMRF]” is less than -1 kcal/mol; for “SAGGSAGGSAGVDFFKAPDGSEYAVVVARGKDADIPVLTRVDDGNDALAERFGLPKEKIGSAGGSAGGSAGG [r11_1039_TrMRF]” it is less than -1 kcal/mol; for “SAGGSAGGSAGVKEIADKFPGIKSIDVQRNKNGEQTVSIEHRSKGGPVKHTFPAEDLEPLSAGGSAGGSAGG [r17_116_TrROS]” it is less than -1 kcal/mol.
In the case of “SAGGSAGGSAGVPPDAPEVVVTLTLRPPGPDTTVTLTVPAAELPPEAIPPGTVVERAVSPGASAGGSAGGSA [r18_21_JUSTAS]” it was less than -1 kcal/mol.
Consider “SAGGSAGGSAGWEMLRMIKENAKPGKPTTITIHPNFPMEEINKELIEDAPIDDVEYTPMPSAGGSAGGSAGG [r11_524_TrROS]”, for which the “folding stability dG unfold” value is less than -1 kcal/mol.
The figure for “SAGGSAGGSAGWFYRIEIPHPNGRKRTHYVPDPEEAEDELKEEFGIPPENVKIEPIPPNDSAGGSAGGSAGG [r17_169_TrROS]” is less than -1 kcal/mol; for “SAGGSAGGSAGWKISVRMPDNGKPRRVPIEIPFDADDPQYFKEIANDLANDGIREVEIYPSAGGSAGGSAGG [r11_196_TrROS]” it is less than -1 kcal/mol.
In the case of “SAGGSAGGSAGWRVRVSFPNGNKIEIDEIPPDDEGMTPDQLADEIQKEFPGNGIEVEPVPSAGGSAGGSAGG [r17_42_TrROS]”, the “folding stability dG unfold” value is less than -1 kcal/mol.
